The text below walks through data of PMC5591402, “Facile Affinity Maturation of Antibody Variable Domains Using Natural Diversity Mutagenesis” (Frontiers in Immunology, 2017).

B1: wild-type N2 VHH antibody (VHH)
VHH: QGQLVESGGGSVQAGGSLRLSCAASGIDSSSYCMGWFRQRPGKEREGVARINGLGGVKTAYADSVKDRFTISRDNAENTVYLQMNSLKPEDTAIYYCAAKFSPGYCGGSWSNFGYWGQGTQVTVSS
notes: also called NbSyn2; wild-type N2 variable domain; not shown: His6, C-terminal, kept
B2: N2.12 reversion mutant L52b (VHH)
VHH: QGQLVESGGGSVQAGGSLRLSCAASGIDSSSYCMGWFRQRPGKEREGVGRINGLRGIKTAYADSVKDRFTISRDNAENTVYLQMNSLKPEDTAIYYCAAKSSPGYCGGTWSNFGYWGQGTQVTVSS
notes: as the VHH chain of m3 (N2.12) with W52b reverted to the wild-type L52b; PDB 2X6M); Kabat numbering
B3: N2.17 reversion mutant F96 (VHH)
VHH: QGQLVESGGGSVQAGGSLRLSCAASGIDSSSYCMGWFRQRPGKEREGVARINGWGGVKTAYADSVKDRFTISRDNAENTVYLQMNSLKPEDTAIYYCAAKFSPGYCGGTWFNFGYWGQGTQVTVSS
notes: as the VHH chain of m4 (N2.17) with S96 reverted to the wild-type F96; PDB 2X6M); Kabat numbering
B4: N2.17 reversion mutant L52b (VHH)
VHH: QGQLVESGGGSVQAGGSLRLSCAASGIDSSSYCMGWFRQRPGKEREGVARINGLGGVKTAYADSVKDRFTISRDNAENTVYLQMNSLKPEDTAIYYCAAKSSPGYCGGTWFNFGYWGQGTQVTVSS
notes: as the VHH chain of m4 (N2.17) with W52b reverted to the wild-type L52b; PDB 2X6M); Kabat numbering
B5: N2.17 reversion mutant S100d (VHH)
VHH: QGQLVESGGGSVQAGGSLRLSCAASGIDSSSYCMGWFRQRPGKEREGVARINGWGGVKTAYADSVKDRFTISRDNAENTVYLQMNSLKPEDTAIYYCAAKSSPGYCGGSWFNFGYWGQGTQVTVSS
notes: as the VHH chain of m4 (N2.17) with T100d reverted to the wild-type S100d; PDB 2X6M); Kabat numbering
B6: N2.17 VHH (VHH)
VHH: QGQLVESGGGSVQAGGSLRLSCAASGIDSSSYCMGWFRQRPGKEREGVARINGWGGVKTAYADSVKDRFTISRDNAENTVYLQMNSLKPEDTAIYYCAAKSSPGYCGGTWFNFGYWGQGTQVTVSS
notes: PDB 2X6M) with four CDR mutations; Kabat numbering; Selected from the natural diversity library by yeast display; also called N2.17 variant; not shown: His6, C-terminal, kept
B7: N2.12 reversion mutant G53 (VHH)
VHH: QGQLVESGGGSVQAGGSLRLSCAASGIDSSSYCMGWFRQRPGKEREGVGRINGWGGIKTAYADSVKDRFTISRDNAENTVYLQMNSLKPEDTAIYYCAAKSSPGYCGGTWSNFGYWGQGTQVTVSS
notes: as the VHH chain of m3 (N2.12) with R53 reverted to the wild-type G53; PDB 2X6M); Kabat numbering
B8: N2.12 VHH (VHH)
VHH: QGQLVESGGGSVQAGGSLRLSCAASGIDSSSYCMGWFRQRPGKEREGVGRINGWRGIKTAYADSVKDRFTISRDNAENTVYLQMNSLKPEDTAIYYCAAKSSPGYCGGTWSNFGYWGQGTQVTVSS
notes: PDB 2X6M) with six CDR mutations; Kabat numbering; Selected from the natural diversity library by yeast display; also called N2.12 variant; not shown: His6, C-terminal, kept
B9: N2.5 VHH (VHH)
VHH: QGQLVESGGGSVQAGGSLRLSCAASGIDSSSYCMGWFRQRPGKEREGVARINGLSGVKTAYADSVKDRFTISRDNAENTVYLQMNSLKPEDTAIYYCAAKSSPGYCGGTWFSFGYWGQGTQVTVSS
notes: PDB 2X6M) with mutations in CDR2 and CDR3; One of the 17 unique variants of the enriched library (1-6 mutations in CDR2 and CDR3)
B10: N2.16 VHH (VHH)
VHH: QGQLVESGGGSVQAGGSLRLSCAASGIDSSSYCMGWFRQRPGKEREGVGRINGWSGVKTAYADSVKDRFTISRDNAENTVYLQMNSLKPEDTAIYYCAAKSSPGYCGGTWYNFGYWGQGTQVTVSS
notes: PDB 2X6M) with mutations in CDR2 and CDR3; One of the 17 unique variants of the enriched library
B11: N2.17 reversion mutant S100f (VHH)
VHH: QGQLVESGGGSVQAGGSLRLSCAASGIDSSSYCMGWFRQRPGKEREGVARINGWGGVKTAYADSVKDRFTISRDNAENTVYLQMNSLKPEDTAIYYCAAKSSPGYCGGTWSNFGYWGQGTQVTVSS
notes: as the VHH chain of m4 (N2.17) with F100f reverted to the wild-type S100f; PDB 2X6M); Kabat numbering; also called reversion mutation S100f
B12: N2.12 reversion mutant F96 (VHH)
VHH: QGQLVESGGGSVQAGGSLRLSCAASGIDSSSYCMGWFRQRPGKEREGVGRINGWRGIKTAYADSVKDRFTISRDNAENTVYLQMNSLKPEDTAIYYCAAKFSPGYCGGTWSNFGYWGQGTQVTVSS
notes: as the VHH chain of m3 (N2.12) with S96 reverted to the wild-type F96; PDB 2X6M); Kabat numbering; also called reversion mutation (F96)
B13: N2.12 reversion mutant S100d (VHH)
VHH: QGQLVESGGGSVQAGGSLRLSCAASGIDSSSYCMGWFRQRPGKEREGVGRINGWRGIKTAYADSVKDRFTISRDNAENTVYLQMNSLKPEDTAIYYCAAKSSPGYCGGSWSNFGYWGQGTQVTVSS
notes: as the VHH chain of m3 (N2.12) with T100d reverted to the wild-type S100d; PDB 2X6M); Kabat numbering
B14: N2.12 reversion mutant A49 (VHH)
VHH: QGQLVESGGGSVQAGGSLRLSCAASGIDSSSYCMGWFRQRPGKEREGVARINGWRGIKTAYADSVKDRFTISRDNAENTVYLQMNSLKPEDTAIYYCAAKSSPGYCGGTWSNFGYWGQGTQVTVSS
notes: as the VHH chain of m3 (N2.12) with G49 reverted to the wild-type A49; PDB 2X6M); Kabat numbering; also called N2.12 with A49
B15: N2 VHH alanine mutant V55 (VHH)
VHH: QGQLVESGGGSVQAGGSLRLSCAASGIDSSSYCMGWFRQRPGKEREGVARINGLGGAKTAYADSVKDRFTISRDNAENTVYLQMNSLKPEDTAIYYCAAKFSPGYCGGSWSNFGYWGQGTQVTVSS
notes: PDB 2X6M) with the stated change; Kabat numbering
B16: N2 VHH alanine mutant G100b (VHH)
VHH: QGQLVESGGGSVQAGGSLRLSCAASGIDSSSYCMGWFRQRPGKEREGVARINGLGGVKTAYADSVKDRFTISRDNAENTVYLQMNSLKPEDTAIYYCAAKFSPGYCAGSWSNFGYWGQGTQVTVSS
notes: as for B15
B17: N2 VHH alanine mutant N100g (VHH)
VHH: QGQLVESGGGSVQAGGSLRLSCAASGIDSSSYCMGWFRQRPGKEREGVARINGLGGVKTAYADSVKDRFTISRDNAENTVYLQMNSLKPEDTAIYYCAAKFSPGYCGGSWSAFGYWGQGTQVTVSS
notes: as for B15
B18: N2 VHH alanine mutant S100f (VHH)
VHH: QGQLVESGGGSVQAGGSLRLSCAASGIDSSSYCMGWFRQRPGKEREGVARINGLGGVKTAYADSVKDRFTISRDNAENTVYLQMNSLKPEDTAIYYCAAKFSPGYCGGSWANFGYWGQGTQVTVSS
notes: as for B15
B19: N2 VHH alanine mutant F96 (VHH)
VHH: QGQLVESGGGSVQAGGSLRLSCAASGIDSSSYCMGWFRQRPGKEREGVARINGLGGVKTAYADSVKDRFTISRDNAENTVYLQMNSLKPEDTAIYYCAAKASPGYCGGSWSNFGYWGQGTQVTVSS
notes: as for B15
B20: N2 VHH alanine mutant S100d (VHH)
VHH: QGQLVESGGGSVQAGGSLRLSCAASGIDSSSYCMGWFRQRPGKEREGVARINGLGGVKTAYADSVKDRFTISRDNAENTVYLQMNSLKPEDTAIYYCAAKFSPGYCGGAWSNFGYWGQGTQVTVSS
notes: as for B15
B21: N2 VHH alanine mutant G53 (VHH)
VHH: QGQLVESGGGSVQAGGSLRLSCAASGIDSSSYCMGWFRQRPGKEREGVARINGLAGVKTAYADSVKDRFTISRDNAENTVYLQMNSLKPEDTAIYYCAAKFSPGYCGGSWSNFGYWGQGTQVTVSS
notes: as for B15
B22: N2 VHH alanine mutant G100c (VHH)
VHH: QGQLVESGGGSVQAGGSLRLSCAASGIDSSSYCMGWFRQRPGKEREGVARINGLGGVKTAYADSVKDRFTISRDNAENTVYLQMNSLKPEDTAIYYCAAKFSPGYCGASWSNFGYWGQGTQVTVSS
notes: as for B15
B23: N2 VHH alanine mutant L52b (VHH)
VHH: QGQLVESGGGSVQAGGSLRLSCAASGIDSSSYCMGWFRQRPGKEREGVARINGAGGVKTAYADSVKDRFTISRDNAENTVYLQMNSLKPEDTAIYYCAAKFSPGYCGGSWSNFGYWGQGTQVTVSS
notes: as for B15
B24: N2 VHH alanine mutant G99 (VHH)
VHH: QGQLVESGGGSVQAGGSLRLSCAASGIDSSSYCMGWFRQRPGKEREGVARINGLGGVKTAYADSVKDRFTISRDNAENTVYLQMNSLKPEDTAIYYCAAKFSPAYCGGSWSNFGYWGQGTQVTVSS
notes: as for B15
B25: N2 VHH alanine mutant S97 (VHH)
VHH: QGQLVESGGGSVQAGGSLRLSCAASGIDSSSYCMGWFRQRPGKEREGVARINGLGGVKTAYADSVKDRFTISRDNAENTVYLQMNSLKPEDTAIYYCAAKFAPGYCGGSWSNFGYWGQGTQVTVSS
notes: as for B15

Where no end group is shown, it is not given here.

The first assay addresses T1, TAMRA-labeled α-synuclein peptide (Homo sapiens, also: TAMRA fluorophore, position not given here).
T1 construct: the TAMRA peptide is called the α-synuclein peptide; also called C-terminal α-synuclein peptide; antigen; source: synthetic peptide, bought: Genemed Synthesis Inc
T1 chain: GYQDYEPEA
As to the kind of experiment: fluorescence polarisation; VHH titrated (0.8 nM-1.6 µM) against 2 nM TAMRA-labeled α-synuclein peptide; PBS with 0.001% BSA and 0.001% Tween 20; room temperature, 3 h; fit that accounts for antibody not in excess of antigen. Conditions: both partners purified. A general note: Polarisation of emitted light reports the rotation of a fluorescent probe.
Consider B1, for which the affinity, expressed as Kd, was 57.6 nM. On to B2, for which the binding result is given as “binds”. The same measure, in the same setting: the value for B3 was “binds”; that for B4 was “binds”.

As for B5, the binding result is “binds”. In the case of B6, the Kd (as a rule, the free concentration of one partner at which half of the binding sites on the other are occupied at equilibrium, for simple one-to-one binding) worked out at 13.2 nM. Consider B7, for which the binding result is “binds”. Regarding B8, the affinity, expressed as Kd, was 7.6 nM.

B9: the binding result is listed as “binds”. In the case of B10, the binding result is recorded as “binds”.

For B11, the binding result is “binds”.

B12: the binding result is “binds”. In the case of B13, the binding result is reported as “binds”. For the molecule B14, the “fold affinity enhancement relative to wild type” value was more than 7 fold.

The target in a further assay is T1, TAMRA-labeled α-synuclein peptide. The assay is described as follows: fluorescence polarisation; alanine scan: single VHH concentrations (44, 133 and 400 nM) with 2 nM TAMRA-labeled α-synuclein peptide; background-subtracted signal of the mutant divided by that of wild type. Conditions: both partners purified.
Regarding B15, the “binding relative to wild type (normalised polarisation signal)” value is more than 50%. Take B16: the “binding relative to wild type (normalised polarisation signal)” value was more than 50%.

With B17, the “binding relative to wild type (normalised polarisation signal)” value was more than 50%. As to B18, the “binding relative to wild type (normalised polarisation signal)” value is more than 50%. With B19, the “binding relative to wild type (normalised polarisation signal)” value was more than 50%.

B20: the “binding relative to wild type (normalised polarisation signal)” value was more than 50%. As to B21, the “binding relative to wild type (normalised polarisation signal)” value was more than 50%. In the case of B22, the “binding relative to wild type (normalised polarisation signal)” value was more than 50%. In the case of B23, the “binding relative to wild type (normalised polarisation signal)” value was more than 50%. In the case of B24, the “binding relative to wild type (normalised polarisation signal)” value is more than 50%. B25: the “binding relative to wild type (normalised polarisation signal)” value was more than 50%.
